From patent US20240316099A1

Target: NKG2D ligands
Test: cell-based or functional assay

lysis of autologous immature dendritic cells, E:T ratio of 20:1: 4.2%
B1: chimeric NKG2D receptor (NKG2D.ζ), expressed on primary human NK cells (receptor)
chain: MRVKFSRSAEPPAYQQGQNQLYNELNLGRREEYDVLDKRRGRDPEMGGKPRRKNPQEGLYNELQKDKMAEAYSEIGMKGERRRGKGHDGLYQGLSTATKDTYDALHMQALPPRGWIRGRRSRHSWEMSEFHNYNLDLKKSDFSTRWQKQRCPVVKSKCRENASPFFFCCFIAVAMGIRFIIMVAIWSAVFLNSLFNQEVQIPLTESYCGPCPKNWICYKNNCYQFFDESKNWYESQASCMSQNASLLKVYSKEDQDLLKLVKSYHWMGLVHIPTNGSWQWEDGSILSPNLLTIIEMQKGDCALYASSFKGYIENCSTPNTYICMQRTV
cytotoxicity against autologous MDSCs, 4-hour chromium-release assay, E:T ratio of 5:1: 35%
cytotoxicity against wild-type K562 in a 4-hour cytotoxicity assay, 2:1 E:T ratio: 79.2%
